The record followed here is patent publication US20200216534A1.

Read-outs that look alike come from different tables or passages of the source.

Common to all, as to assay: cell-based or functional assay
The target of test [1] is m19-humBBz CAR (mouse; human) (UniProt P01731).
The target in test [2] is h19BBz CAR (human) (UniProt P01732).
In test [3] the target is m19-humBBz CAR (mouse; human) (UniProt P01731). This is another data set of the same source.

In test [1], TRAF1 DN (184-417aa) came in with an NF-κB signaling, GFP % in NF-κB/293/GFP-Luc reporter cells of 13.4% and an NF-κB signaling, GFP MFI in NF-κB/293/GFP-Luc reporter cells of 1690 MFI.

Turning to TRAF2 (over-expressed, cerulean-tagged), the NF-κB, fold against h19BBz alone in test [2] was 7.7 fold.

B1: TRAF2 DN (87-501aa) (protein, UniProt Q12933 87-501, looked up, species assumed)
chain: SSSAFPDNAARREVESLPAVCPSDGCTWKGTLKEYESCHEGRCPLMLTECPACKGLVRLGEKERHLEHECPERSLSCRHCRAPCCGADVKAHHEVCPKFPLTCDGCGKKKIPREKFQDHVKTCGKCRVPCRFHAIGCLETVEGEKQQEHEVQWLREHLAMLLSSVLEAKPLLGDQSHAGSELLQRCESLEKKTATFENIVCVLNREVERVAMTAEACSRQHRLDQDKIEALSSKVQQLERSIGLKDLAMADLEQKVLEMEASTYDGVFIWKISDFARKRQEAVAGRIPAIFSPAFYTSRYGYKMCLRIYLNGDGTGRGTHLSLFFVVMKGPNDALLRWPFNQKVTLMLLDQNNREHVIDAFRPDVTSSSFQRPVNDMNIASGCPLFCPVSKMEAKNSYVRDDAIFIKAIVDLTGL
modifications: cerulean fluorescent protein tag
On to B1, for which, in test [3], the NF-κB signaling, GFP MFI in NF-κB/293/GFP-Luc reporter cells worked out at 14300 MFI and the NF-κB signaling, GFP+% in NF-κB/293/GFP-Luc reporter cells came to 63.5%.

B2: TRAF3 DN (382-568aa) (protein, UniProt Q13114 382-568, looked up, species assumed)
chain: ESQLSRHDQMLSVHDIRLADMDLRFQVLETASYNGVLIWKIRDYKRRKQEAVMGKTLSLYSQPFYTGYFGYKMCARVYLNGDGMGKGTHLSLFFVIMRGEYDALLPWPFKQKVTLMLMDQGSSRRHLGDAFKPDPNSSSFKKPTGEMNIASGCPVFVAQTVLENGTYIKDDTIFIKVIVDTSDLPDP
modifications: cerulean fluorescent protein tag
On to B2, for which, in test [3], the NF-κB signaling, GFP % in NF-κB/293/GFP-Luc reporter cells turned out to be 30.8% and the NF-κB signaling, GFP MFI in NF-κB/293/GFP-Luc reporter cells is 6060 MFI.
